Biological target: human monomeric APP-tagged SIRPα V domain protein (human) (UniProt P78324)
Test: BiaCORE SPR; binder captured on Protein A, monovalent APP-tagged SIRPα V domain as analyte (Method 2.1)

“CD47-ECD IgG1 Fc fusion protein (from UniProt Q08722 19-141)” was tested, and the Kd was 3 µM.
